The Kd is the constant that tells how readily two partners part at equilibrium. A lower Kd goes with a tighter complex. One may read the stoichiometry N as the number of molecules, sites or subunits per partner or assembly.

For one assay, the target named is Moesin FERM domain (UniProt P26038).
Assay [1] has as its target T1, Merlin FERM domain (Merlin-FERM, residues 1-320) (human, UniProt P35240 1-320).
T1 sequence (looked up): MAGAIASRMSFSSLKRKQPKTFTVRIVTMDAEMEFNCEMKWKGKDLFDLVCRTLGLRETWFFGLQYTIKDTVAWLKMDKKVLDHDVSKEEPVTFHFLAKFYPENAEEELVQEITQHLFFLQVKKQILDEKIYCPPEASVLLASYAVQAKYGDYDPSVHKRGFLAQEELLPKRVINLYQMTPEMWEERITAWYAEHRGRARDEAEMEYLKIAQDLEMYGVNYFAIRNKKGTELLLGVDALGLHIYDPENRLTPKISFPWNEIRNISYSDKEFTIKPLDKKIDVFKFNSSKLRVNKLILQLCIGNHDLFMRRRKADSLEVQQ
The assay can be described thus: ITC.

The target in assay [2] is T1, Merlin FERM domain (Merlin-FERM, …). Description: crystal structure.
The target is the same in assay [3].
Assay [4] deals with entire C-terminal half of Merlin (human). Description: SEC.
For a further assay, the target named is T2, S518A-Merlin (human, UniProt P35240 20-595, S518A).
T2 sequence (looked up): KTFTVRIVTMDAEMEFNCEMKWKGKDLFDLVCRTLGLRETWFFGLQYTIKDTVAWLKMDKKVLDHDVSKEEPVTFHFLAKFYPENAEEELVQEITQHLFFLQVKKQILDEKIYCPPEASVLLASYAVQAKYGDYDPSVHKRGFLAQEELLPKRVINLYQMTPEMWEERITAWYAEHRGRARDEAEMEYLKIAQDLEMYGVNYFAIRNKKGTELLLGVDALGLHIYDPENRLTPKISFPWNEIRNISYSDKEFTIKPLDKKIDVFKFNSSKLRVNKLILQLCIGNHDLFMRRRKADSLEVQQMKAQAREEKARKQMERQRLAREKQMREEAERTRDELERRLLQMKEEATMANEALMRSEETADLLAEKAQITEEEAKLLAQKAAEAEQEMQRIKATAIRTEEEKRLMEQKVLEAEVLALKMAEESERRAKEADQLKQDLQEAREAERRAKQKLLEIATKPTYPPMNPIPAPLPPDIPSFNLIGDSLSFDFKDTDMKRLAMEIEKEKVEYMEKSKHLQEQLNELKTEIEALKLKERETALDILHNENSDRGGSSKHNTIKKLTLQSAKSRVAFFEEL
Description: pull-down.

A further assay concerns the target T3, S518D-Merlin (human, UniProt P35240 20-595, S518D).
T3 sequence (looked up): T2 sequence (looked up) with A499D
The assay can be described thus: ITC. On the technique in general: In ITC the heat of successive injections is recorded.

Where a chain is given by its changes, count along the chain named. In names and notes the source's numbering stands. Several values for one entry are separate records, joined by “and”; a condition that tells them apart may be missing. Identical values can stand only once. Like-named read-outs stand apart in the source and are kept apart here.

Chain of Moesin FERM domain (P26038 2-295): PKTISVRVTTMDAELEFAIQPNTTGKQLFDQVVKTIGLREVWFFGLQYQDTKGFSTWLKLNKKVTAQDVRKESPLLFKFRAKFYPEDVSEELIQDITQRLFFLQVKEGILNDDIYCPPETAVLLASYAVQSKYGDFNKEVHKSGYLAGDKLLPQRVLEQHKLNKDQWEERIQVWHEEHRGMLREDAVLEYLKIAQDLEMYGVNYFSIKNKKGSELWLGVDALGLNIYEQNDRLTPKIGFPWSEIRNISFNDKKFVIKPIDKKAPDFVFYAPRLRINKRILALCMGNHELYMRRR

With Moesin tail domain (domain or fragment), in the assay with Moesin FERM domain, the Kd came out at 16 nM.

B1: N-terminus of Lats1 (Lats1-NT, residues 1-153) (domain or fragment, mouse, UniProt Q8BYR2 1-153, looked up)
chain: MKRGEKPEGYRQMRPKTFPASNYPGSSRQMLQEIRESLRNLSKPSDASKAEHNLNKMSTEDPRQVRNPPKFGTHHKALQEIRNSLLPFANETSSSRSPSEVNPQMFQDLQAAGFDEDMVIQALQKTNNRSIEAAVEFISKMSYQDPRREQMSA
For the molecule B1, the Kd in assay [1] was ~1400 nM.

B2: Lats2 FERM-binding domain (Lats2-FBD, residues 68-99) (domain or fragment, human, UniProt Q9NRM7 68-99, looked up)
chain: PKFGPYQKALREIRYSLLPFANESGTSAAAEV
For the molecule B2, in assay [2], the binding result is listed as “binds”.

B3: Merlin-CTD-S518D (domain or fragment, human, UniProt P35240 507-595, looked up)
chain: FDFKDTDMKRLDMEIEKEKVEYMEKSKHLQEQLNELKTEIEALKLKERETALDILHNENSDRGGSSKHNTIKKLTLQSAKSRVAFFEEL
Turning to B3, the Kd in assay [3] was ~4000 nM.

B4: Merlin-CTD bearing S518D/A585W substitutions (domain or fragment, human, UniProt P35240 507-595, looked up)
chain: B3 chain with A79W
For B4, the binding result in assay [2] is “binds”.

B5: Merlin C-terminal tail domain (Merlin-CTD, residues 507-595) (domain or fragment, human, UniProt P35240 507-595, looked up)
chain: B3 chain with D12S
Consider B5, for which the Kd in assay [3] is ~3000 nM and ~4000 nM.

B6: elongated α-helix-rich region of AMOT (residues 404-728 of AMOT-p130) (domain or fragment)
chain: ADPFAMVSRAQQMVEILSDENRNLRQELDGCYEKVARLQKVETEIQRVSEAYENLVKSSSKREALEKAMRNKLEGEIRRMHDFNRDLRDRLETANKQLAEKEYEGSEDTRKTISQLFAKHKENQREKEKLEAELATARSTNEDQRRHIEIRDQALSNAQAKVVKLEEELKKKQVYVDKVEKMQQALVQLQAACEKREQLEHRLRTRLERELESLRIQQRQGNSQPTNASEYNAAALMELLREKEERILALEADMTKWEQKYLEENVMRHFALDAAATVAAQRDTTVISHSPNTSYDTALEARIQKEEEEILMANKRCLDMEGRIK
In turn, B6 had a stoichiometry N in assay [4] of 1.

B7: Lats1 FERM-binding domain (Lats1-FBD, residues 69-100) (domain or fragment, mouse, UniProt Q8BYR2 69-100, looked up)
chain: PKFGTHHKALQEIRNSLLPFANETSSSRSPSE
On to B7, for which the binding result in assay [2] is listed as “binds”.

B8: GST-tagged Lats1-FBD (domain or fragment, mouse, UniProt Q8BYR2 69-100, looked up)
chain: B7 chain
With B8, the binding result with S518A-Merlin is recorded as “binds”.

B9: EBP50 C-terminal tail (EBP50-CT, residues 320-358) (domain or fragment, human, UniProt O14745 320-358, looked up)
chain: ILDFNISLAMAKERAHQKRSSKRAPQMDWSKKNELFSNL
Regarding B9, the Kd in assay [1] was ~80 nM. Besides, in the assay with S518D-Merlin, the binding result was “binds”.

The values above are taken from PMC4493278 (Cell Research, 2015).
